Laboratory results published in the NTF2 design screens of Basanta et al. (2020).

Assay: protease stability score; higher = more stable; yeast display proteolysis, trypsin and chymotrypsin;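 also: relative to predicted unfolded state with 0 unfolded-like and 1 meaning tenfold more protease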

Sequence | protease stability score
DNKEKLMNKAFEWILELIITGDEDTLHELADPNARNHYGEFHHVGREETTRFLVEFNRRLGVDHVRFERMRVIDGKVHLHIEINVDGRRFESDLIFFKVDGRWKLNFVHFRHV | 1.27
DNTEENTRTLLELLKRVWRTGDWSQLDKLLDPNARAEINGVELHGREKVVEVFREELERLGVEYTDSRVKDMKVQGDKAIIDLELETEQGDKTHMHDLHIETRKVDGRWFVEHIIVH | 1.75
DPREIALKLLLQIMQELEETGDFREEEKYVDPHMRIKIDGVIYHGRSAIEHEYRRFDHIHEIELKRFHVQGDKITLEGYIRGNFDGKEHNTRSILLAKKVNGRWVLTEVTWL | 0.801
DQDDHMAKEFHKLFFDAIRTGDEDLLSMLLDPHVLMNIGNFHRHGRELVVDMQRHLYEKHGFRIHNAHVERWHIFENRLIYHLKVDGKVDGKRHVMEFDLTILKVDGVWIITSITIK | 1.44
DQDEEIMRRLLKTILESWVTGDEDELRRRADPDARSDINGRKHHGRDRVVKRMHDWLRELGIDHLHIEHERIIGEKAHFDTRVHVNGKTFEMFLHFEIIDGRVRSMHVEIR | 0.654
DQEEHEFYNVLRLFMFTLMTGDEHTLKKLLDPNARIEINGQERHGREEILHHMNRNLHEIRMKTLEVKRESVYGNYAHADTRLRGEVNGRESIVTVHIYIQVINGRIEHVHLDIK | 1.45
DQEEQDIRRAIRLYLELLLTGDWKTLEKLIDPNVRLNFNGQEYHGMRDVLRLLKEILEELGIKHVHLHDERIQGDKVKVDTRVEINGKHSEVILVAEKINGKWVVHHLEHNHK | 1.24
DQEERDSKHALRFMEHVISTGDEHLIEELLDPHARLDINGVDVHGREEVKRTITEHRKRYKNLRIHVTDLEVVNGVVRLHTELNIGDKRFEVRWFLDKIDGRWLMTEIRIR | 1.12
DQEEREDRKILKLLVELWRTGNEEVLEHLLDPNVKMRLEFEGREDSAHGRESMIEMLRRVWKVLGIKHERLESVHVFDGVVIITMRLSVDGREQDIQLLFFVYDGRIKSIVIRVRDR | 1.45
DQEERIAHKVAEFFLHALLTGDERLLTEYFDPHVRIIIHINGVEIRYHGREEWVEWLRDILRRFDVVRFHIRDIRNIGNKSIVHSEHREHVNGKSRSTRTELLIDVVDGRIHEVEIRIE | 1.44
DQEHEDARNVLHLLIRSWRTGDEHTSEHLMDPDVKIIYNGRVHVGREDAHRFVEEARVHHIVLHDSRVQGDYIRLDIRVEGEINGRRDRTEVDMVVLKINGRWMIQSIKFK | 1.38
DQEHRDLHKLAHLILEYLVTGDFEMFEHLADPNVKVNINGKEMHGMERMREHLELIWKELRIHHLHITEVTIQGNKVEIDGRWDGKVNGQHRIEERHFYLVTVNGRIRHISEEIV | 1.37
DQHERELEHAMEMLEKILKTGDERLFEHYADPHIRLEIEINGRRIDDHGRDLVLHLWRKMGADHMNIRSIDIQGDKLILNSTIEFNGQIHRSRFISLKVNGRWFIESVRLQDT | 0.907
DQKKELIKKVHEHLFEDLITGDEKKLLSLADPNMRSDINGREIHGMEETSRILLELNRHWGVDRVEVHEHDMKIQGDKAIIHGTLKFNGVETTVELVILKINGVWLLKEVHFR | 0.76
DQLDKSMKESMTRALEHWETGNERSLENLLDPNTKVVVNGVIVHGWERMSELIHDFWRRLGIDHVEIEDIHNHIQGDKAVLNNKTVINVNGQEIKTTLIIYITKVNGRWTIHSIEIHIH | 1.72
DQREETTNRALHEFIENLITGDEHELLRLLDPNTKMIWNGRENHGWKRAKTVLKEFLERIDVFKDHKLRNMELQGNKAEVEGQVIFEIDGKEVRHDLSLIFLKVDGKWMIESIEIR | 1.34
DQRERDQHIALEIWLLVLETGDERYVRRYADPRMRIEVGDKEIHGREDALEFRTEELRHMRLRDFRNKSFTVIDGRVDFYGHLLIEVDGRSQIFDSRLIILKVNGRWFLESEIRH | 1.43
DRDDEMTERALKEHIKNFRTGDFDKLLELADPNVRVDIDGREIHGRENFVKLVLKLMDDLGMKPEDVWVEHVNVFNGKVHMRIVLVTFYGDKRHINDTNVIATKFDGRWILKDVTMV | 1.08
DRDEQMLRTYLHRMYESIRTGDEDSFKRLFDPNTRLHFENHHEHGWELLLRLMLRYANQADHFKLEIEDVTVQGDKAILRVHITVHVDGRDVSRSTVLYTTKVDGQWHFETVREK | 1.48
DRDQHQAEKAFKLLVDILQTGDEEEIYKMADPHMQIDFDGRLHHGRDEFVKLVSETIRKFKNIRVEIHHIEVFDGRMHTDSRIHVGDKEWTIDIHIQKVNGKWKLKHVRVD | 0.945
DREEEDYRRAWEHLHKDWKTGNEEHMERNADPNVRVEINGVERVGRELFVELMRHLVRHIRIEHVHVERSDIVNGVIILDMIVTGRIGDKSEIERVEVHTLKIDGRWLLTEVRFK | 0.663
DREEEELKRIMHLFINFVETGDWELILKLMDPNVKMQIDFNGKIFRNHGRDALEYTIRLMGIDHIEIHHQDVIDGKLHIDVTVHIDGQDLRVHIHVIVIDGRIREVRHRTH | 1.23
DREEEEVRRARKLWVDWAETGDEESIFKNADPRTRVDINGKILHGMEIYKKESEKLGIDNIEFRVDDVRVFDGRLEMDGELIVNGRSIRVHIYSRKIDGRWVLTSINFI | 0.872
DREEEHTRTLAKELFEIFLTGDFDRFSELADPNTRLRIIINGVEFRDHGMEFWQWWVDEIRIHSYRMRDMRVFNGQAILLSTSDVEFNGRRHETTVEFVLVIVNGRIKSVTIIVR | 1.69
DREEEKLLHAIKLLLHNWMTGDEDSEIDLMDPNARIVWNGVELHGMTEVRRFLHEYHRRFDVFTHTHIDHYRVIGDKAESHIRLEGSVDGRTIKHQTFILMSKYNGKWTNQTLTFE | 1.13

Sequence | protease stability score
DREEHELLHAIERWLKAEETGDEHELKKLADPHTRTHIRIGDKHIERHGREDMIKVFRELGFKHHHMRSIEIQGDYVHVRGENRFDGQHITLILIFHKFDGRWILREVEVHIR | 1.41
DREEKQAEEVATEIIRALLTGDEKWLLHLIDPNVRWIMDVNGKELTLHGWHELIKKFRDDFRHLGVERFHVHVKDWDIQGDKMHLRVTFHIDGKTFDYELIIIVINGRITSMEVREH | 2
DREELLMLFLKSWLTGDEHILKELLDPHVRMDVDGVEQHGRDVLLHLLHHLSRYMGVDHHRIERFEVQGDKIFINLRIHWNGVESELEIILFVIDGKIKEVEIRSRDEDHKRMVKESWR | 1.19
DREENEIREFIEKLVDAHLTGNFELMDELADPNVRIEIGDKRYHGREEYLRLMHELRIHHVEIDHIEWYNGQVHMHGTVDGVVDGRRHRIHTEMTVEKVNGRWILTEERQL | 1.69
DREERDTREALRILHEISRTGDEELLDRQMDPDVKIDFENHEFHGREEASTLIHEIYQKWGLSNVEMDIKRVRTVGEKVDIDGRLHFNGVTRDIRLINLKVNGKWFIHSIIFR | 1.2
DREHDELRKTWEIYSQALSTGDEDELNKLADPNTRLDIDGKELHGMEDVHRHLHHNLRRVDHIELRIHEIRYQGDFAHVDGEVIIVYDGVKKSRRVHLILTKINGRWILTSVEFR | 1.28
DREHREREELLNETNKAIATGDEETLRRLFDPNVQIEQGEYHHHGWEWVKKLMEEMRIEVEHVHDRRVDMFENHVRVDTHVHLRFIIGDKIFHVNLRQEIVMHKVNGVWIFKSFKYH | 1.4
DREKEFVKEFFTMLHNVLHTGDFKLFEKMLDPRYRVEIGDKEAHGREEVLRWFHEYMRIAGIDHIELHLHNFDYQGDKVRMDTIVILIQGDKTFHLDVRIVVKKIDGQWINQTERIH | 1.42
DREKKEAEQLIRLINRYIQTGDEHSLSRLMDPHVLLQVGDKKDIGWEIIINKIKEMWEKFKGARFNLEMRDIHLQGDFAEIDVEFEILVNGQFDTLKTRFIIFKIDGRWVIRSLSLE | 2.33
DRERLADELRRRLEKVMTTGDPTELDKLMDPNARILYGDQKFHGREHVKEFAKTLNDQYDHVTIRLVSYDIKNGEIHIVVDVVFRHNGQTRTKRINFVARVHGDKVKIESINIP | 1.48
DRERRHEEQLYRDLIHAWFTGDEEWLRKYADPHVRVEIGDKLRHGMEWLAKMREDVHRHLGIDHIHIHDHYFFDGRVHMDFRINIGDKHHNLHLHIVNVDGKVRSFRFEIH | 1.09
DRHDKELERFTSDWLTSWHTGDFHRILELLDPDVRYIYGDKEWHGRENVHRAIKELLERLGIDHLHLQRVEIQGEKFKIQTQVHVGDKTINLIIHILVVDGRVREVNMDEK | 1.33
DRHEELNKEIAEELVHWHRTGDWEEIQRNMDPNVRMEINGVENVGRETMAEILHEWLSRIKGLRVEIKHVEIIGDKVHIHGRININGRERNTHIDLHVVNGQMHELIIKVE | 0.279
DRHEETDRRAVKILLEVIRTGDFETFYRLMDPHARYEYGEKELHGRDKSLKLLEELLRRFGHDKVEVHLKTYSAIDGRMEIHSVVNYNGREHNLHIESDKVNGRWEIRDIHVL | 1.09
DRHEKIALEMARIILELLYTGDEDTFKHLADPNVKLHLDINGRHFEHHGREEHEKWSRELERHMRITDIKIDDEKVQGDWVHIDSTIVMRIGDKSSIHKMHFIFQIVDGRIKNMEVVIK | 1.38
DRHERKKVAKDFNEALETNDHEQLMEQMDPNARIKYGDKHYHGREDLRRFWKKLVDSVDHITVDKMQVRGEEVVVLAKAESNGRNETFRLVMEFHNGRIKFVRKDTP | 1.05
DRIEEEFEFALRHLIHNWVTGDETRLQKLADPNVRTVFEGREHHGRESFTELVHEIRFHDFRLRDYKIQGNKIVVDGEFDVDINGVRRIIRVELEIIKINGRWYIHSISFL | 0.203
DRIEELSEEALHILKEVVRTGDERLIEENMDPNTRLEIGDKEFHGRHYAERFARDLGIKHMTFHHYETIDGRVHIHGTLHFNGRTHHTQIVLLKVNGQWRIERIHID | 0.669
DRLEELLRHVSSLFLHSVETGDFDILQKLADPHVRMEVDGKELHGREHMVQRILDEYHKFGFTQIDSRLEDVRVYGDKVEVDLEHHFDGKTYKYEIILRKVNGRWTLESVIVR | 1.22
DRLEELVERIAEIFLESYLTGDWKHLFDYFDPHAKLNIDGQESVGRESIQLMLEIHFKRVDHIQHFHRDDHRIQGNKFVFIGTLEGHVNGRTTRSRVKVEVTAVDGRIEELHIHIE | 1.23
DRLHEMAREFSEEWSRAVKTGDEQLYSKLVDPNARFSIGEFDFHGRDEVSRIMKHWRIEDVHLSSVSVQGEKVEIRGHLHGDFDGRRQDVEVIIIVLKVNGRWFLRDLEFR | 1.31
DRQKEILRELMEMFLTIFETGDEERFWELADPHVRHVIDIGDKEIRRVGREEMLKVWEHLYREMRIHRITLKDVRLVNGVFHAHVKVDGEYNGQRRETEMDIELNVVNGRVKSLIIHIQ | 1.89
DRREEHAVNVFEIMFVLLLTGDETLFDKLFDPHVLFIIGDKEYHGRERFSKEMLRWIEEWRIQEFKIKDVRVVGDKAEIDGRIRGRYGDKETEIELHLIVMKVDGRWLVHSIELV | 1.09
DRREEMEEIADELRRELIKTGDEHSTHRLADPHAKLHIGDKEYHGMEFMIRFFKILGVDHLRLQDIRVIDGQVHIHITSRVGDKRVHVEIISDKYNGRWRLREVIITID | 0.711
DRRQEELRRMAEIWIHNELTGNEDEFRKLADPNVRFHLHVNGRVLSSHGMETLVKLFRELLEEWRIKEIHIHDMHIQGDKVHLEGRRRGTIGDKEDIYEVEIHVVIVNGKMKEITVIIK | 1.51
